Experimental findings from the supplement of paper PMC5998384 are described below.

For series [1], the system named is HeLa Kyoto. The series can be described thus: solubility change mitosis vs G1/S (difference of NP-40 vs SDS log2 ratios) (log2 ratio difference); higher = more soluble in mitosis.
Series [2] deals with HeLa Kyoto. The series can be described thus: melting temperature (median over replicates), in situ; higher = more thermally stable.
Series [3] has as its system HeLa Kyoto. The series can be described thus: thermal stability score vs G1/S (z-score of summed log2 fold changes over temperatures); higher = more thermally stable than in G1/S.
In series [4] the test system is HeLa Kyoto. The series can be described thus: solubility in G1/S (NP-40 vs SDS abundance) (log2 ratio); higher = more soluble. The following applies: cell cycle stage: G1/S.
The mark [5] stands for this setting: cell cycle stage: early G1 (4.5 h after nocodazole release).
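Throughout, for melting temperature (median over replicates), in situ: HeLa Kyoto cells synchronized by double thymidine or nocodazole block, proteins quantified by TMT10plex mass spectrometry, three independent biological replicates.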
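Throughout, for solubility change mitosis vs G1/S (difference of NP-40 vs SDS log2 ratios): synchronized HeLa Kyoto cells (double thymidine block for G1/S, nocodazole release for mitosis), protein amounts in NP-40 versus SDS lysates quantified by mass spectrometry, three biological replicates.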
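Throughout, for solubility in G1/S (NP-40 vs SDS abundance): HeLa Kyoto cells arrested at G1/S by double thymidine block, proteins quantified by TMT10plex mass spectrometry in mild NP-40 versus SDS extracts, three biological replicates.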
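Throughout, for thermal stability score vs G1/S (z-score of summed log2 fold changes over temperatures): synchronized HeLa Kyoto cells, proteins quantified by TMT10plex mass spectrometry, three biological replicates, mitosis taken 0.5 h after nocodazole release, G1/S directly after double thymidine block.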

For “METFDPTELPELLKLYYRRLFPYSQYYRWLNYGGVIKNYFQHREFSFTLKDDIYIRYQSFNNQSDLEKEMQKMNPYKIDIGAVYSHRPNQHNTVKLGAFQAQEKELVFDIDMTDYDDVRRCCSSADICPKCWTLMTMAIRIIDRALKEDFGFKHRLWVYSGRRGVHCWVCDESVRKLSSAVRSGIVEYLSLVKGGQDVKKKVHLSEKIHPFIRKSINIIKKYFEEYALVNQDILENKESWDKILALVPETIHDELQQSFQKSHNSLQRWEHLKKVASRYQNNIKNDKYGPWLEWEIMLQYCFPRLDINVSKGINHLLKSPFSVHPKTGRISVPIDLQKVDQFDPFTVPTISFICRELDAISTNEEEKEENEAESDVKHRTRDYKKTSLAPYVKVFEHFLENLDKSRKGELLKKSDLQKDF [PRIM1]”, the “solubility change mitosis (log2)” value in series [1] is -0.247. Also, the melting temperature stood at 48.8 °C in series [2] (cell cycle stage: G1/S) and 49.6 °C in series [2] (cell cycle stage: mitosis). In addition, the thermal stability score in series [3] (setting [5]) is 0.672; in series [3] (cell cycle stage: mitosis) it was 1.37. For the same sequence, the “solubility in G1/S (log2)” value in series [4] was -0.144.

Take “METPAAAAPAGSLFPSFLLLACGTLVAALLGAAHRLGLFYQLLHKVDKASVRHGGENVAAVLRAHGVRFIFTLVGGHISPLLVACEKLGIRVVDTRHEVTAVFAADAMARLSGTVGVAAVTAGPGLTNTVTAVKNAQMAQSPILLLGGAASTLLQNRGALQAVDQLSLFRPLCKFCVSVRRVRDIVPTLRAAMAAAQSGTPGPVFVELPVDVLYPYFMVQKEMVPAKPPKGLVGRVVSWYLENYLANLFAGAWEPQPEGPLPLDIPQASPQQVQRCVEILSRAKRPLMVLGSQALLTPTSADKLRAAVETLGVPCFLGGMARGLLGRNHPLHIRENRSAALKKADVIVLAGTVCDFRLSYGRVLSHSSKIIIVNRNREEMLLNSDIFWKPQEAVQGDVGSFVLKLVEGLQGQTWAPDWVEELREADRQKEQTFREKAAMPVAQHLNPVQVLQLVEETLPDNSILVVDGGDFVGTAAHLVQPRGPLRWLDPGAFGTLGVGAGFALGAKLCRPDAEVWCLFGDGAFGYSLIEFDTFVRHKIPVMALVGNDAGWTQISREQVPSLGSNVACGLAYTDYHKAAMGLGARGLLLSRENEDQVVKVLHDAQQQCRDGHPVVVNILIGRTDFRDGSIAV [ILVBL]”: the “solubility change mitosis (log2)” value in series [1] was -0.172. Further, the values for the melting temperature in series [2] (cell cycle stage: G1/S) and in series [2] (cell cycle stage: mitosis) were 53.2 °C and 53.7 °C, respectively. Further, the thermal stability score in series [3] (setting [5]) was 0.852; in series [3] (cell cycle stage: mitosis) it was -0.0354. The “solubility in G1/S (log2)” value in series [4] is -0.101.

On to “METVQLRNPPRRQLKKLDEDSLTKQPEEVFDVLEKLGEGSYGSVYKAIHKETGQIVAIKQVPVESDLQEIIKEISIMQQCDSPHVVKYYGSYFKNTDLWIVMEYCGAGSVSDIIRLRNKTLTEDEIATILQSTLKGLEYLHFMRKIHRDIKAGNILLNTEGHAKLADFGVAGQLTDTMAKRNTVIGTPFWMAPEVIQEIGYNCVADIWSLGITAIEMAEGKPPYADIHPMRAIFMIPTNPPPTFRKPELWSDNFTDFVKQCLVKSPEQRATATQLLQHPFVRSAKGVSILRDLINEAMDVKLKRQESQQREVDQDDEENSEEDEMDSGTMVRAVGDEMGTVRVASTMTDGANTMIEHDDTLPSQLGTMVINAEDEEEEGTMKRRDETMQPAKPSFLEYFEQKEKENQINSFGKSVPGPLKNSSDWKIPQDGDYEFLKSWTVEDLQKRLLALDPMMEQEIEEIRQKYQSKRQPILDAIEAKKRRQQNF [STK4]”, for which, in series [1], the “solubility change mitosis (log2)” value is -0.0655. Also, the values for the melting temperature in series [2] (cell cycle stage: G1/S) and in series [2] (cell cycle stage: mitosis) were 51.8 °C and 51.5 °C, respectively. Besides, the thermal stability score in series [3] (setting [5]) is 0.936; in series [3] (cell cycle stage: mitosis), 0.0765. For the same sequence, the “solubility in G1/S (log2)” value in series [4] is 0.283.

As for “MEVAANCSLRVKRPLLDPRFEGYKLSLEPLPCYQLELDAAVAEVKLRDDQYTLEHMHAFGMYNYLHCDSWYQDSVYYIDTLGRIMNLTVMLDTALGKPREVFRLPTDLTACDNRLCASIHFSSSTWVTLSDGTGRLYVIGTGERGNSASEKWEIMFNEELGDPFIIIHSISLLNAEEHSIATLLLRIEKEELDMKGSGFYVSLEWVTISKKNQDNKKYEIIKRDILRGKSVPHYAAIEPDGNGLMIVSYKSLTFVQAGQDLEENMDEDISEKIKEPLYYWQQTEDDLTVTIRLPEDSTKEDIQIQFLPDHINIVLKDHQFLEGKLYSSIDHESSTWIIKESNSLEISLIKKNEGLTWPELVIGDKQGELIRDSAQCAAIAERLMHLTSEELNPNPDKEKPPCNAQELEECDIFFEESSSLCRFDGNTLKTTHVVNLGSNQYLFSVIVDPKEMPCFCLRHDVDALLWQPHSSKQDDMWEHIATFNALGYVQASKRDKKFFACAPNYSYAALCECLRRVFIYRQPAPMSTVLYNRKEGRQVGQVAKQQVASLETNDPILGFQATNERLFVLTTKNLFLIKVNTEN [NUDCD1]”, the “solubility change mitosis (log2)” value in series [1] was -0.234. For the same sequence, the melting temperature in series [2] (cell cycle stage: G1/S) was determined as 51.5 °C; in series [2] (cell cycle stage: mitosis), 52.4 °C. For the same sequence, the thermal stability score in series [3] (setting [5]) was found to be 0.569; in series [3] (cell cycle stage: mitosis), 0.543. Also, the “solubility in G1/S (log2)” value in series [4] is -0.0356.

For the sequence “MEVKGKKQFTGKSTKTAQEKNRFHKNSDSGSSKTFPTRKVAKEGGPKVTSRNFEKSITKLGKKGVKQFKNKQQGDKSPKNKFQPANKFNKKRKFQPDGRSDESAAKKPKWDDFKKKKKELKQSRQLSDKTNYDIVVRAKQMWEILRRKDCDKEKRVKLMSDLQKLIQGKIKTIAFAHDSTRVIQCYIQYGNEEQRKQAFEELRDDLVELSKAKYSRNIVKKFLMYGSKPQIAEIIRSFKGHVRKMLRHAEASAIVEYAYNDKAILEQRNMLTEELYGNTFQLYKSADHRTLDKVLEVQPEKLELIMDEMKQILTPMAQKEAVIKHSLVHKVFLDFFTYAPPKLRSEMIEAIREAVVYLAHTHDGARVAMHCLWHGTPKDRKVIVKTMKTYVEKVANGQYSHLVLLAAFDCIDDTKLVKQIIISEIISSLPSIVNDKYGRKVLLYLLSPRDPAHTVREIIEVLQKGDGNAHSKKDTEVRRRELLESISPALLSYLQEHAQEVVLDKSACVLVSDILGSATGDVQPTMNAIASLAATGLHPGGKDGELHIAEHPAGHLVLKWLIEQDKKMKENGREGCFAKTLVEHVGMKNLKSWASVNRGAIILSSLLQSCDLEVANKVKAALKSLIPTLEKTKSTSKGIEILLEKLST [PUM3]”, in series [1], the “solubility change mitosis (log2)” value was 0.758. Besides, the figures for the melting temperature in series [2] (cell cycle stage: G1/S) and in series [2] (cell cycle stage: mitosis) were 46.6 °C and 50 °C, respectively. Also, the thermal stability score in series [3] (setting [5]) is 1.46; in series [3] (cell cycle stage: mitosis) it was 3.65. Further, the “solubility in G1/S (log2)” value in series [4] is -1.05.

As to “MEVKPPPGRPQPDSGRRRRRRGEEGHDPKEPEQLRKLFIGGLSFETTDDSLREHFEKWGTLTDCVVMRDPQTKRSRGFGFVTYSCVEEVDAAMCARPHKVDGRVVEPKRAVSREDSVKPGAHLTVKKIFVGGIKEDTEEYNLRDYFEKYGKIETIEVMEDRQSGKKRGFAFVTFDDHDTVDKIVVQKYHTINGHNCEVKKALSKQEMQSAGSQRGRGGGSGNFMGRGGNFGGGGGNFGRGGNFGGRGGYGGGGGGSRGSYGGGDGGYNGFGGDGGNYGGGPGYSSRGGYGGGGPGYGNQGGGYGGGGGYDGYNEGGNFGGGNYGGGGNYNDFGNYSGQQQSNYGPMKGGSFGGRSSGSPYGGGYGSGGGSGGYGSRRF [HNRNPA3]”, the “solubility change mitosis (log2)” value in series [1] came to 0.411. For the same sequence, the melting temperature in series [2] (cell cycle stage: G1/S) is 47.8 °C; in series [2] (cell cycle stage: mitosis) it was 49.3 °C. Also, the thermal stability score in series [3] (setting [5]) is 2.6; in series [3] (cell cycle stage: mitosis), 4.71. For the same sequence, in series [4], the “solubility in G1/S (log2)” value was -0.252.
